Laboratory results as given in patent publication US20260008856A1, “METHODS OF TREATING DISEASE USING ANTI-IL1RAP ANTIBODIES AND ANTIBODY DRUG CONJUGATES” (Bluefin Biomedicine, Inc., priority 2022, published 2026).

Key:
EOL-1 = test: Flow cytometry binding to endogenous cell line EOL-1; format: cell-based, human; design: key to binding to EOL-1 by flow cytometry: (−): No binding; (+): Weak binding; (++): Moderate binding; (+++): Strong binding; settings: primary antibody 1 ug/ml
Experimental: (§1) Staining for flow cytometry was performed in 1× cold PBS with 0.5% BSA. Primary antibodies (1 ug/ml) were incubated with live cells on ice for 30 minutes, after a brief wash, cells were incubated with Alexa Fluro® 488-conjugated anti-human IgG secondary antibody @1:1000 (709-546-149, Jackson ImmunoResearch). Acquisition of the data was performed on a MACSQuant® Flow Cytometers (Miltenyi Biotec) and analyzed with FlowJo software.
(§2) Over 1,000 hits were identified that bind strongly to CHO-human IL1RAP, but not parental CHO cells. 68 clones were selected for molecular cloning. Based on unique CDR3 sequences from the heavy chain variable domain, 35 antibodies from 13 families were confirmed by binding in IL1RAP positive cell lines EOL1 and Karpas 299 (see Table 8) by flow cytometry (MACSQuant® www.miltenybiotec.com).

H69 = test: Flow cytometry binding to endogenous cell line H69; format: cell-based; design: key: (−): No binding; (+): Weak binding; (++): Moderate binding; (+++): Strong binding; settings: primary antibody 1 ug/ml
Experimental: as §1

Karpas 299 = test: Flow cytometry binding to endogenous cell line Karpas 299; format: cell-based, human; design: key to binding to Karpas 299 by flow cytometry: (−): No binding; (+): Weak binding; (++): Moderate binding; (+++): Strong binding; settings: primary antibody 1 ug/ml
Experimental: as §1, §2

MOLT3 = test: Flow cytometry binding to endogenous cell line MOLT3; format: cell-based; design: key: (−): No binding; (+): Weak binding; (++): Moderate binding; (+++): Strong binding; settings: primary antibody 1 ug/ml
Experimental: as §1

IL-1β signaling = test: IL-1 signaling reporter cell assay (HEK-Blue IL-1β cells), IL-1β; format: cell-based; settings: HEK-Blue IL-1β cells, antibody 1-10 pg/ml, IL-1β 0.5 ng/ml
Experimental: (§3) HEK-Blue IL-1β cells (Invivogen, CA) were harvested and plated in technical duplicates at a density of 50,000 cells per well in a 96-well plate. IL1RAP antibodies, or a corresponding human IgG1 control antibody was added to the wells in a concentration range of […]. After incubating cells with antibodies for 30 minutes, IL-1β was added to a final concentration of 0.5 ng/ml, and the plate was incubated overnight. To examine whether any of the antibodies were able to induce IL-1R activation in the absence of IL-1β, samples were incubated with 10 μg/mL antibody without addition of the ligand. The following day, substrate was added to the supernatants, and samples were analyzed for absorbance at 620 nm.

recombinant human IL1RAP = target: T1, recombinant human IL1RAP (Homo sapiens, UniProt Q9NPH3); test: Binding competition binning on Octet; settings: Protein A biosensors
T1 construct: MBP-IL1RAP(S21-T367)-; 8xHis (C); made in house; host or cells: CHO (ExpiCHO transient expression)
Experimental: Binding Competition binning: Binding competition among different antibodies was determined using a real-time, interferometry assay on an Octet Red™ instrument with Protein A-conjugated biosensors. To assess whether two antibodies competed for binding to a recombinant IL1RAP protein, the assay was performed as follows. Protein A biosensors were first submerged into wells containing 10 ug/mL of individual monoclonal antibodies for 5 minutes. Following the capture step, the biosensors were dipped briefly (15 seconds) into buffer and then any unoccupied sites on the biosensor were saturated by submerging them for 5 minutes into wells containing 100 ug/mL of an irrelevant monoclonal antibody. The Octet™ biosensors were then dipped briefly (15 seconds) in buffer before immersion for 1 minute into wells containing recombinant IL1RAP. The biosensors were dipped briefly (15 seconds) in buffer before immersion for 1 minute into wells containing a second recombinant antibody.
For the control case where the second antibody was the same as the first, there was no increase in signal, because there was no additional binding to the recombinant target.
For the control case where buffer was used instead of the first antibody, no recombinant target bound the non-quenching antibody on the biosensor and no second antibody bound the biosensor.
Selected antibodies were evaluated in pairs for their ability to simultaneously bind recombinant human IL1RAP. The analysis was performed by Octet™ loaded with Protein A Biosensors. A total of five different bins were determined as follows.

mouse IL1RAP = target: T2, mouse IL1RAP (Mus musculus, UniProt Q61730); test: Flow cytometry binding to 293 cells expressing mouse IL1RAP; format: cell-based; settings: 1 ug/ml
T2 construct: Met1-Val570; host or cells: HEK-293T
Experimental: 293T cell line was purchased from American Type Culture Collection (ATCC). 293T cells expressing human, Macaca fascicularis, rat, and mouse IL1RAP were maintained in DMEM medium (Invitrogen) with 10% fetal bovine serum (FBS) (Sigma) in the presence of 2 ug/ml puromycin (Invitrogen).
as §1

IL-33 signaling = IL-33 signaling reporter cell assay (HEK-Blue IL-33 cells); format: cell-based; settings: antibody 1-10 μg/ml, IL-33 0.5 ng/ml
Experimental: FIGS. 7A and 7B show blockage of IL-33 signaling by anti-IL1RAP antibodies. HEK-Blue IL-33 cells (Invivogen, CA) were harvested and plated in technical duplicates at a density of 50,000 cells per well in a 96-well plate. Antibodies, or a corresponding human IgG1 control antibody, was added to the wells in a serial dilution starting at 10 μg/ml (FIG. 7A), or a concentration of 1 and 10 μg/ml (FIG. 7B). After incubating cells with antibodies for 30 minutes, IL-33 was added to a final concentration of 0.5 ng/ml, and the plate was incubated overnight. 24 hours later, substrate was added to the supernatants, and samples were analyzed for absorbance at 620 nm. CBIgG1 (anti-hen egg lysozyme antibody, CrownBio™) was included as a negative control.
as §3, with “IL-33” for “IL-1β”, “plate.” for “plate. IL1RAP”, “ST2” for “IL-1R”, “IL-33,” for “IL-1β,”

T2 sequence (Q61730 21-570): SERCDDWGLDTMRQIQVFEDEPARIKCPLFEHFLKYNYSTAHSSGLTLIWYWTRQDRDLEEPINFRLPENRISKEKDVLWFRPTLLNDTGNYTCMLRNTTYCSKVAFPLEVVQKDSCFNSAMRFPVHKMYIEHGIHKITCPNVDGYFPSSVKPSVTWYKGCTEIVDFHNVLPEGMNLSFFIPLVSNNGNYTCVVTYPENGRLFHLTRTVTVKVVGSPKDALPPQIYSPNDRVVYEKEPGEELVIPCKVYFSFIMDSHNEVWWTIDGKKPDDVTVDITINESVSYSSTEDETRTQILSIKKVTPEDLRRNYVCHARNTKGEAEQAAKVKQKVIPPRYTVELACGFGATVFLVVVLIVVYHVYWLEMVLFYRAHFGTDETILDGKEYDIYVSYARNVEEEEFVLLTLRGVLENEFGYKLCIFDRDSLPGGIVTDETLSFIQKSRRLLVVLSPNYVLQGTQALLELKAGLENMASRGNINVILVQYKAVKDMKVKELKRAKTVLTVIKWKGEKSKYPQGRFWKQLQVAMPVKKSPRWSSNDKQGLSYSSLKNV

B1: 10C8_15A4: human anti-IL1RAP antibody, VH SEQ ID NO: 106, VL SEQ ID NO: 108 (antibody, V domains shown)
VH: EEQLLESGADLAQPGGSLRLSCAASGFTFSSYAMSWVRQAPGKGLEWVSTIRISGDTTYYADSVKGRFTISRDNSKNTLFLQMNSLRAEDTAVYYCVRDYYNGMDVWGHGTTVTVSS
VL: EIVLTQSPATLSLSPGERATLSCRASQRVSSYLAWYQQKPGQAPRLLIYDASNRATGIPARFSGSGSGTDFTLTISSLEPEDFAVYYCQQRSYWPPAFGQGTKLEIK
binding to EOL-1 by flow cytometry (EOL-1): (+++) | binding to H69 by flow cytometry (H69): (−) | binding to Karpas 299 by flow cytometry (Karpas 299): (+++)

B2: 26C5_15B4: human anti-IL1RAP antibody, VH SEQ ID NO: 96, VL SEQ ID NO: 98 (antibody, V domains shown)
VH: EAQLLESGGGLVQPGGSLRLSCAASGFTFSSYAMSWVRQAPGKGLEWVSTISGSGGSTHYADSVKGRFTISRDNSKNTLYLQMNSLRAEDTAVYYCVRDYYYGMDVWGQGTTVTVSS
VL: EIVLTQSPATLSLSPGERATLSCRASQSVSSYLAWYQQKPGQAPRLLIYDASNRATGIPARFSGSGSGTDFTLTISSLEPEDFAVYYCQQRSYWPPTFGQGTKLEIK
binding to EOL-1 by flow cytometry (EOL-1): (+++) | binding to H69 by flow cytometry (H69): (−) | binding to Karpas 299 by flow cytometry (Karpas 299): (+++)

B3: 16H2_17D1: human anti-IL1RAP antibody, VH SEQ ID NO: 83, VL SEQ ID NO: 87 (antibody, V domains shown)
VH: EVQLLESGADLVQPGGSLRLSCAASGFTFSSYAMSWVRQAPGKGLEWVSTIRISGGTTYYADSVKGRFTISRDNSKNTLYLQMNSLRAEDTAVYYCVRDYYNGMDVWGQGTTVTVSS
VL: EIVLTQSPATLSLSPGERATLSCRASQRVSSYLAWYQQKPGQAPRLLIYDASNRATGIPARFSGSGSGTDFTLTISSLEPEDFAVYYCQQRSYWPPAFGQGTKLEIK
binding to EOL-1 by flow cytometry (EOL-1): (+++) | binding to H69 by flow cytometry (H69): (−) | binding to Karpas 299 by flow cytometry (Karpas 299): (+++)

B4: 33H2_21B1: human anti-IL1RAP antibody, VH SEQ ID NO: 140, VL SEQ ID NO: 143 (antibody, V domains shown)
VH: EVQVVESGGGLVQPGGSLRLSCATSGFTFRSYWMTWVRQAPGKGLEWVANIKQDGSERHYVDSVKGRFTISRDNAKTSLYLQMSSLRAEDTAMYYCAREGYYGSGYFDYWGQGTLVTVSS
VL: DIQMTQSPSTLSASVGDRVIITCRASQSISRGLAWYQQKPGKAPKLLIYKASNLESGVPSRFSGSGSGTEFTLTISSLQPDDFAAYYCQQYSYYSHTFGQGTKVEIK
binding to EOL-1 by flow cytometry (EOL-1): (+++) | binding to Karpas 299 by flow cytometry (Karpas 299): (+++) | binding to MOLT3 by flow cytometry (MOLT3): (+)

B5: 5G8_18A1: human anti-IL1RAP antibody, VH SEQ ID NO: 1, VL SEQ ID NO: 5 (antibody, V domains shown)
VH: QVELQESGPGLVKPSDTLSLTCTVTGGSISTYYWSWIRQPPGKGLEWIGYIFYTGTTNYNPSLKSRVTISVDASKNQFSLKLNSVTAADTAVYYCARDGSLDYWGQGALVTVSS
VL: DIQMTQSPSSLSASVGDRVTITCRASQSISNYLNWYQQKPGKAPKLLIFVASLLQSGVPSRFSGSGSGTDFTLTISSLQPEDFATYYCQQSYSTPFTFGPGTKLEIK
inhibition of IL1R1 / IL-1 signaling (IL-1β signaling): potent inhibition | binding to EOL-1 by flow cytometry (EOL-1): (+++) | binding to H69 by flow cytometry (H69): (−) | competition for binding, bin (2) (recombinant human IL1RAP): competed with each other | competition for binding, bin (3) (recombinant human IL1RAP): competed with each other

B6: 16H2_17D2: human anti-IL1RAP antibody, VH SEQ ID NO: 25, VL SEQ ID NO: 29 (antibody, V domains shown)
VH: QVQLVESGGGVVQPGGSLRLSCAASGFTFSSHGMHWVRQAPGKGLEWVAVIWYDGSNKFYTDSVQGRFTISRDNSKNTLNLQMNSLRAEDTAVYYCAREGLRAGYYFDFWGQGTLVTVSS
VL: DIQMTQSPSSLSASVGDRVTITCRASQRISFYSNWYQQKPGKAPKLLIYAASSLQSGVPSRFSGSGSGTDFTLTISSLQPEDFATYFCQQSHSTPLTFGGGTKLEIK
inhibition of IL1R1 / IL-1 signaling (IL-1β signaling): potent inhibition | binding to EOL-1 by flow cytometry (EOL-1): (+++) | competition for binding, bin (2) (recombinant human IL1RAP): competed with each other

B7: 5D12_18A4: human anti-IL1RAP antibody, VH SEQ ID NO: 163, VL SEQ ID NO: 167 (antibody, V domains shown)
VH: QVQLQESGPGLVKPLGTLSLTCAVSGGSISNSNWWSWVRQPPGKGLEWIGEIYHSGSTNYNPSLKSRVTIALDWSKNQFSLQLRSVTAADTAVYYCARYGSGPFGGDCWGQGTLVTVSS
VL: DIQLTQSPSFLSASVGDRVTISCRASQGISSYLAWYQQKPGKAPKLLIYAASTLQGGVPSRFSGSGSGTTFTLTISSLQPEDFATYYCQQLNTYPFTFGPGTKLEIK
binding to EOL-1 by flow cytometry (EOL-1): (+++) | binding to 293 cells expressing mouse IL1RAP (mouse IL1RAP): bind weakly | binding to Karpas 299 by flow cytometry (Karpas 299): (++) | competition for binding, bin (1) (recombinant human IL1RAP): competed with each other

B8: 36A10_21B6: human anti-IL1RAP antibody, VH SEQ ID NO: 48, VL SEQ ID NO: 52 (antibody, V domains shown)
VH: QGQVVESGGGVVQPGRSLRLSCAASGFTFSSYTLHWVRQAPGKGLEWVAVIWYDGSNKYYVDSVKGRFTISRDNSKNTLYLQMNSLRAEDTAVYYCAREYGSGSYYNVYYGMDVWGQGTTVTLSS
VL: DIVMTQSPLSLPVTPGEPASISCRSSQSLLHSNGYNYLDWYLQKPGQSPHLLIYLASNRASGVPDRFSGSGSGTDFTLKISRVEAEDVGFYYCMQTLQIPLTFGGGTKVEIK
inhibition of IL-33 signaling (IL-33 signaling): partially inhibit | inhibition of IL1R1 / IL-1 signaling (IL-1β signaling): potent inhibition | binding to EOL-1 by flow cytometry (EOL-1): (+++) | binding to Karpas 299 by flow cytometry (Karpas 299): (++) | competition for binding, bin (3) (recombinant human IL1RAP): competed with each other | competition for binding, bin (4) (recombinant human IL1RAP): competed with each other | binding to MOLT3 by flow cytometry (MOLT3): (+)
